# Results from US11905559B2, “Materials and methods for controlling gene expression” (priority 2016, dated 2024).
# “And” between values parts separate entries of the source, which are not always exact repeats. Equal entries are not always repeated.
# What was measured:
# [1] = Constant-force (CF) single-molecule optical tweezers folding assay of guanine-aptamer RNAs in guanine buffer; type: physicochemical; conditions: for F^eq / k^eq: [G] = 200 nM; for Observed nucleotides / Observed ΔXobs: CF; for k^eq: at F^eq; for Equilibrium force F^eq / Folding rate kf / Unfolding rate ku / Transition distance ΔX / ΔG (0): 3 mM Mg^2+; for Folding rate kf / Unfolding rate ku / Transition distance ΔX / ΔG (0): 200 nM G
# From the text: The aptamer folding was monitored in real time using a constant-force (CF) assay. Equilibrium sampling techniques provide unprecedented insights into the rare events in the course of folding that are otherwise difficult to identify. The technique also allows for determination of the kinetic rates that has not been fully investigated in the guanine riboswitch. The relative dynamics of the helices have been investigated in ensemble and smFRET experiments, which indicated a non-dynamic P1-P3, upon which the P2 helix switches conformations. As shown in FIG. 6A (left panel), the RNA oscillated between the linear and the hairpin conformations (E↔D↔C) at 13 pN. The distances ΔXED=7.1±0.4 nm and ΔXDC=7.9±0.4 nm correspond to the folding of a 17±1 nt (P2) and 19±1 nt (P3) respectively (FIGS. 7A-B). The conversion of distances to nucleotides in CF assay are described in Table 2.
# A miniaturized dual beam optical tweezers instrument was constructed with a sampling rate of 0.4, 4 and 40 kHz. Typically, in the tweezers set up (FIGS. 2A-E), a single-molecule of RNA is held between two beads via ˜550 nucleotide (nt) long Handles A and B. Preparation of Handles and the RNA is described in the section above. The streptavidin coated polystyrene bead (diameter 1.5-1.9 μm, Spherotech Inc.) is fixed on a micropipette via suction, and the anti-digoxigenin coated bead (diameter 4.0-4.9 μm, Spherotech Inc.) is held in the dual counter-propagating laser beam. The trap stiffness, K is measured at 0.04-0.06 pN/nm from the power spectrum analysis of the Brownian motion of the trapped bead. For power spectrum analysis, a polystyrene bead with diameter ˜4.6 μm is trapped in the counter-propagating laser beam in aqueous buffer with a fixed trap position. […] The average from 10 beads yielded K˜0.049±0.0008 pN/nm, and the stoke's drag coefficient, y=0.0364±0.0002 pN. s/μm. […] However, the autocorrelation time (τ0) defined as the τ1=1/2πfc as described by Zoldak et al., “Ultrafast folding kinetics and cooperativity of villin headpiece in single-molecule force spectroscopy”. Proc. Natl. Acad. Sci. U.S.A 110, 18156 (2013) sets the detection limit for the observable kinetics, which is different from the sampling frequencies. […] The ACF for the time series of force signal, Fi, with sampling rate δ and N data points, is calculated as,
# In a constant-force (CF) experiment, the RNA is held at a preset force through feedback control. The preset force typically fluctuated around the mean with a standard deviation ±0.15 pN. In this mode, data is recorded from 4-40 kHz to capture the fast intermediates. The plots are shown as extension vs. time (as in FIG. 6A). In force-jump (FJ) assay, the force is suddenly jumped from one force to another, and then held constant thereafter, as shown in FIGS. 23A-B.
# All FR, CF and FJ experiments were carried out at an ambient temperature, 25±0.5° C. The buffer in the microfluidics contained 10 mM Tris-HCl, pH 7.5 at 25° C., 250 mM NaCl, 3 mM MgCl2, and purine concentrations as indicated in wild-type aptamer. Unless stated otherwise, Mg^2+ concentration in the buffer was maintained at 3 mM in all experiments. The buffer in mutant m1 contained 5 mm Mg^2+ and 1 μM G, and in m3 contained 5 mM Mg^2+ and 200 nM Guanine. For the remaining m2, m4, m5 and m6 mutants, the buffer in single-molecule experiments was supplemented only with 3 mM Mg^2+ and 200 nM Guanine.
# In the force-ramp experiment, the trap was moved away (pull cycle) from the micropipette at 200 nm/sec, which corresponded to a loading rate of 7-8 pN/sec. This movement of the trap exerted a tension at the ends of the tethered RNA aptamer. […] In the constant-force (CF) experiment, the RNA was held at a preset force (FIG. 6A). The loading rate in CF experiments was zero. The preset force typically fluctuated around the mean with standard deviation ±0.15 pN. […]
# [2] = Isothermal titration calorimetry (ITC); type: binding; conditions: 30° C.
# Experimental: For ITC experiments, wild-type G-aptamer and the mutant RNAs were synthesized by in vitro transcription of the DNA template and purified by denaturing polyacrylamide gel electrophoresis (PAGE). The ligand guanine was introduced in the syringe, while the RNA into the sample cell at a final concentration of 10 μM and 1 μM respectively. The concentrations were determined by absorbance reading using ε260=12010 M^−1 cm^−1 (guanine) and ε260=711400 M^−1 cm^−1 (RNA). The buffer in the syringe and the sample cell contained 50 mM K^+ Hepes (pH 7.5), 100 mM KCl, and 10 mM MgCl2. Binding reactions were performed at 30° C. on a MicroCal iTC200 instrument (Malvern) with a reference power of 6 μcal/sec, an initial delay of 60 secs and a stirring speed of 750 rpm. Guanine was titrated into the sample cell in 16 injections (2.5 μl each). The injection rate was 0.5 μl/sec and the spacing between the injections was maintained at 120 sec. Data was baseline corrected and fitted to a single-site binding model to obtain association constant (KA), stoichiometry (n) and binding enthalpy, ΔH. The dissociation constant (KD) and the binding free energy, ΔG was obtained from the fitted parameters using the following relations. All data analysis was performed using the Origin ITC software.
# The ITC results are reported as mean±standard deviation from three independent experiments.
# [3] = transition BA (P1 folding), F 8.5 pN
# [4] = transition CB (J2/3 folding), F 13 pN
# [5] = transition C′B (L2-L3 folding), F 8.5 pN
# [6] = transition DC (P3 folding), F 13 pN
# [7] = transition ED (P2 folding), F 13 pN
molecule,measurement,setting,value
"wt: 69-nucleotide full-length wild-type guanine sensing aptamer RNA sequence from xpt-pbuX operon in B. subtilis (SEQ ID NO: 1) (nucleic acid, RNA, backbone and methylation of C not given here) CACUCAUAUAAUCGCGUGGAUAUGGCACGCAAGUUUCUACCGGGCACCGUAAAUGUCCGACUAUGGGUG",F^eq,[1]; Closed J2/3 (CB),~13 pN
same,Time to form the native receptor structure after guanine binding,[1]; FIG. 22,~8 μsec
same,Observed nucleotides,"[1]; J2/3 (CB), 13 pN",8.4 ± 0.2
same,Observed ΔXobs,"[1]; J2/3 (CB), 13 pN",3.5 ± 0.1 (CF) nm
same,Observed ΔXobs,"[1]; L2-L3 (C′B), 8.5 pN",3.4 ± 0.1 (CF) nm
same,F^eq,[1]; L2-L3 (C′B),8.72 ± 0.11 pN
same,k^eq,[1]; L2-L3 (C′B),0.82 ± 0.06 s⁻¹
same,F^eq,[1]; P1 (BA),8.21 ± 0.11 pN
same,k^eq,[1]; P1 (BA),0.55 ± 0.09 s⁻¹
same,Observed nucleotides,"[1]; P1+ junctions (BA), 8.5 pN",21.7 ± 0.5
same,Observed ΔXobs,"[1]; P1+ junctions (BA), 8.5 pN, 2 nm helix width subtracted",8.0 ± 0.2 (CF) nm
same,F^eq,[1]; P2 (ED),13.49 ± 0.03 pN
same,k^eq,[1]; P2 (ED),13.20 ± 0.20 s⁻¹
same,Observed nucleotides,"[1]; P2 hairpin (ED), 13 pN",17±1
same,Observed ΔXobs,"[1]; P2 hairpin (ED), 13 pN",7.1 ± 0.4 (CF) nm
same,F^eq,[1]; P3 (DC),12.19 ± 0.02 pN
same,k^eq,[1]; P3 (DC),16.80 ± 0.30 s⁻¹
same,Observed nucleotides,"[1]; P3 hairpin (DC), 13 pN",19±1 and 18.9 ± 1
same,Observed ΔXobs,"[1]; P3 hairpin (DC), 13 pN",7.9 ± 0.4 (CF) nm
same,Barrier ΔGP1^‡ before folding of the P1-stem,[1]; free energy landscape transformed to zero force,~6 kBT
same,F^eq for P2-P3,[1]; guanine-aptamer,~13 pN
same,Rates for the two hairpins P2 and P3,[1]; range over Table 1,8.5 to 32.3 s⁻¹
same,Equilibrium force F^eq,"[1]; transition BA (P1 folding), 200 nM G (rates at 8.5 pN)",8.2 ± 0.1 pN
same,Folding rate kf,[1]; [3],0.4 ± 0.03 s⁻¹
same,Unfolding rate ku,[1]; [3],0.7 ± 0.09 s⁻¹
same,Transition distance ΔX,"[1]; transition BA (P1 folding), F 8.5 pN, no helix width adjustment",9.9 ± 0.2 nm
same,ΔG (0),"[1]; transition BA (P1 folding), zero force, from data at 8.5 pN",−13.9 ± 0.4 kBT
same,ΔG (0),"[1]; transition BA (P1 folding), zero force, from data at 8.5 pN, listed as wild-type",−13.9 kBT
same,Transition distance ΔX,[1]; [4],3.5 ± 0.1 nm
same,Unfolding rate ku,[1]; [4],2.6 ± 0.5 s⁻¹
same,ΔG (0),"[1]; transition CB (J2/3 folding), zero force, ΔG(0) = −F·ΔX + ΔGstretch",−7.2 ± 0.3 kBT
same,Equilibrium force F^eq,"[1]; transition C′B (L2-L3 folding), 200 nM G (rates at 8.5 pN)",8.7 ± 0.1 pN
same,Folding rate kf,[1]; [5],0.9 ± 0.06 s⁻¹
same,Transition distance ΔX,[1]; [5],3.4 ± 0.1 nm
same,Unfolding rate ku,[1]; [5],0.8 ± 0.05 s⁻¹
same,ΔG (0),"[1]; transition C′B (L2-L3 folding), zero force, from data at 8.5 pN",−7.1 ± 0.2 kBT
same,Equilibrium force F^eq,"[1]; transition DC (P3 folding), 200 nM G (rates at 13 pN)",12.2 ± 0.02 pN
same,Equilibrium force F^eq,"[1]; transition DC (P3 folding), 200 nM G (rates at 13 pN), listed as wild-type",12.2±0.02 pN
same,Folding rate kf,[1]; [6],8.5 ± 0.1 s⁻¹
same,Transition distance ΔX,[1]; [6],7.9±0.4 nm
same,Unfolding rate ku,[1]; [6],32.3 ± 0.5 s⁻¹
same,ΔG (0),"[1]; transition DC (P3 folding), zero force, from data at 13 pN",−16.3 ± 0.3 kBT
same,ΔG (0),"[1]; transition DC (P3 folding), zero force, from data at 13 pN, listed as wild-type",−16.3 kBT
same,Equilibrium force F^eq,"[1]; transition ED (P2 folding), 200 nM G (rates at 13 pN)",13.5 ± 0.03 pN
same,Equilibrium force F^eq,"[1]; transition ED (P2 folding), 200 nM G (rates at 13 pN), listed as wild-type",13.5±0.03 pN
same,Folding rate kf,[1]; [7],20.0 ± 0.4 s⁻¹
same,Transition distance ΔX,[1]; [7],7.1±0.4 nm
same,Unfolding rate ku,[1]; [7],8.9 ± 0.1 s⁻¹
same,ΔG (0),"[1]; transition ED (P2 folding), zero force, from data at 13 pN",−16.7 ± 0.3 kBT
same,Net free energy change ΔΔGaptamer,"[1]; zero force, guanine-bound receptor structure",−81 kT
same,ΔG of guanine binding,[2],-11.63 ± 0.20 kcal/mol
same,ΔH of guanine binding,[2],-63.7 ± 1.1 kcal/mol
same,Kd,"[2]; 50 mM K^+ Hepes pH 7.5, 100 mM KCl, 10 mM MgCl2, read-out: KD for guanine",4.22 ± 0.6 nM
